Several values for one entry are separate records, joined by “and”; a condition that tells them apart may be missing. Equal entries are not always repeated.
Columns and labels:
[1] = target: KgpcatΔABM1 (enriched fraction from P. gingivalis mutant ECR368) (Porphyromonas gingivalis) (UniProt Q51817); assay: cell-based or functional assay
[2] = target: KgpcatΔABM1 (enriched fraction from P. gingivalis mutant ECR368) (Porphyromonas gingivalis) (UniProt Q51817); assay: enzyme inhibition kinetics (non-competitive, Ki′), chromogenic substrate GPKNa, secondary plot of Vmax observed against inhibitor concentration

| Substance | inhibition of KgpcatΔABM1 activity, chromogenic substrate GPKNa [1] | inhibition of KgpcatΔABM1 enriched fraction activity, fluorescent BSA substrate (DQ BSA), 2 h [1] | Ki [2] | % Proteolytic Activity (GPKNa; inhibitor 50 mg/L) [1] |
| --- | --- | --- | --- | --- |
| recombinant Kgp propeptide (from UniProt Q51817 25-1732) | 75% and 60% | 66% | 2010 nM |  |
| recombinant RgpB propeptide (from UniProt P95493 25-229) |  |  |  | 118% |

Reference: patent US20140288007A1
